{
  "source": "patent US20070020687A1",
  "about": "(CYTOSKELETON, published 2007)",
  "binders": {"B1": {"name": "POSH effector-GBD peptide, histidine tagged (other)", "chain": "KHSDTKKNTKKRHSFTSLTMANKSSQASQNRHSMEISPPVLISSSNPTAAARISELSGLSCSAPSQVHISTTG", "notes": "range 291-363; Linked to maleimide plates through the naturally occurring cysteine at position 351; also called POSH-GBD; POSH-His; not shown: N-terminal histidine tag of vector pRSET-A"}, "B2": {"name": "PAK-GBD-GST peptide (other)", "chain": "KEKERPEISLPSDFEHTIHVGFDAVTGEFTGMPEQWARLLQTSNITKSEQKKNPQAVLDVLEFYNSKKTSNSQKYMSFTDKSAEC", "notes": "range 68-151; also called PAK1-GST; PAK-GST; not shown: Glutathione S transferase tag of vector pGEX-4T with thrombin site, N-terminal"}, "B3": {"name": "constitutively active recombinant Cdc42, glutamine 61 to leucine, histidine tagged (enzyme)", "chain": "not shown", "notes": "Bought protein; also called Cdc42 (61L); constitutively active Cdc42; not shown: histidine tag"}, "B4": {"name": "WASP effector-GBD peptide, histidine tagged, with engineered carboxy terminal cysteine (other, human)", "chain": "DIQNPDITSSRYRGLPAPGPSPADKKRSGKKKISKADIGAPSGFKHVSHVGWDPQNGFDVNNLDPDLRSLFSRAGISEAQLTDAETSKLIYDFIEDQGGLEAVRQEMRRQEPLPPPPPPSRC", "notes": "range 201-321; Linked covalently to maleimide plates; also called WASP-GBD; WASP-His; not shown: N-terminal histidine tag of vector pRSET-A"}, "B5": {"name": "rhotekin-Cys effector-GBD as tested in the G-LISA (other, mouse)", "chain": "ILEDLNMLYIRQMALSLEDTELQRKLDHEIRMRDGAEKLLAALSQREQALEATKSLLVSNSRILSYMGELQRRKEAQVLEKTGC", "notes": "range 7-89; also called modified effector-GBD; Rhotekin-Cys-no tag"}, "B6": {"name": "ROCK-GST peptide (other)", "chain": "EAEQYFSTLYKTQVKELKEEIEEKNRENLKKIQELQNEKETLATQLDLAETKAESEQLARGLLEEQYFELTQESKKAASRNRQEITDKDHTVSRLEEANSMLTKDIEILRRENEELTEKMKKAEEEYKLEKEEEISNLKAAFEKNINTERTLKTQAVNKLAEIMNRKDFKIDRKKANT", "notes": "domain: GBD; a GST fusion of ROCK is described nowhere else; also called ROCK-GBD; RhoA effector ROCK-GBD; not shown: Glutathione S transferase tag"}, "B7": {"name": "ROCK1 effector-GBD peptide, histidine tagged, with engineered carboxy terminal cysteine (other, human)", "chain": "EAEQYFSTLYKTQVKELKEEIEEKNRENLKKIQELQNEKETLATQLDLAETKAESEQLARGLLEEQYFELTQESKKAASRNRQEITDKDHTVSRLEEANSMLTKDIEILRRENEELTEKMKKAEEEYKLEKEEEISNLKAAFEKNINTERTLKTQAVNKLAEIMNRKDFKIDRKKANTC", "notes": "range 847-1024; Linked covalently to maleimide plates through the C-terminal cysteine; also called ROCK1-GBD; ROCK-GBD; not shown: N-terminal histidine tag of vector pRSET-A"}},
  "key": {"[1]": {"molecular_target": "active Rac1, sample not stated (Homo sapiens (Human), UniProt P63000 1-189)", "assay": "G-LISA with and without TCA Antigen Presenting Buffer"}, "[2]": {"molecular_target": "T1, constitutively active recombinant Rac1, glutamine 61 to leucine, histidine tagged (Homo sapiens (Human), UniProt P63000 1-192)", "assay": "Rac1 G-LISA, POSH-GBD on maleimide plate, detection with anti-Rac1 GL06, absorbance 490 nm", "experimental": "(§1) Active Rho protein (typically 7-15 μg total cell lysate or 1-5 ng of constitutively active recombinant protein) were either added directly to the effector bound G-LISA plate (Rac1 and Cdc42 G-LISAs) or diluted with an equal volume of Binding Buffer (20% PEG 8000, Sigma, St. Louis, Mo.) prior to adding to effector bound plates (RhoA G-LISA). The reactions were incubated for 30 minutes at 4° .C on a microtiter titer plate shaker after which wells were washed once with 200 μl of PBST (PBS pH 7.2, 0.05% Tween-20) and immediately treated with 200 μl of Antigen Presenting Buffer (1% trichloroacetic acid (TCA)) for 2-5 minutes at room temperature. […] For RhoA and Rac1 reactions goat anti-mouse secondary at 2 μg/ml is used, for RhoA,B,C reactions donkey anti-chicken secondary at 0.5 μg/ml is used, for Cdc42 reactions goat anti-sheep secondary antibody is used at 0.5 μg/ml. After three washes each of 200 μl PBST the activated Rho proteins are detected using absorbance or luminescence detection as described below."}, "[3]": {"molecular_target": "T1, constitutively active recombinant Rac1, …", "assay": "Rac1 G-LISA on POSH plate with 2 minute Antigen Presenting Buffer (1% TCA), absorbance 490 nm", "procedure": "The reactions were incubated for 30 minutes at 4° C. on a microtiter titer plate shaker after which wells were washed once with 200 μl of PBST (PBS pH 7.2, 0.05% Tween-20) and immediately treated with 200 μl of Antigen Presenting Buffer (1% trichloroacetic acid (TCA)) for 2-5 minutes at room temperature. Wells were then washed three times with 200 μl each of PBST and primary Rac1 antibody was added at 1 μg/ml and incubated at room temperature for 45 minutes. Wells were washed three times with 200 μl each of PBST and incubated with anti-mouse secondary antibody for 45 minutes at room temperature. After three washes each of 200 μl PBST, the activated Rho proteins were detected using absorbance detection. Absorbance was measured at OD₄₉₀ in a spectrophotometer (SpectraMax 250, Molecular Devices) after addition of 50 μl of OPD substrate (Sigma Catalog # P9187) for 15 minutes at 37° C. followed by addition of 50 μl of stop buffer (1M sulfuric acid).\nReferring to FIG. 5B, lysis buffer only (Blank) or 5 ng of Rac1 (61L) were subjected to Rac1 G-LISA assay as described in the materials and methods except that the assays were performed either with or without Antigen Presenting Buffer treatment (1% TCA or No APB respectively) Rac1 signal was detected by absorbance at 490 nm as described in the materials and methods."}, "[4]": {"molecular_target": "T2, endogenous Rac1 of human platelet extract loaded with GTPγS (human, UniProt P63000 1-189)", "assay": "Rac1 G-LISA on POSH-GBD maleimide plate, GDP or GTPγS loaded platelet extract, absorbance 490 nm", "experimental": "as §1"}, "[5]": {"molecular_target": "T1, constitutively active recombinant Rac1, …", "assay": "Rac1 G-LISA, PAK-GBD-GST on glutathione plate, absorbance 490 nm", "experimental": "as §1\n(§2) Plates were incubated at room temperature for 1 hour. Plates were washed twice in PBS and blocked by addition of 0.1% BSA in PBS pH 7.2 for 1 hour at room temperature."}, "[6]": {"molecular_target": "T2, endogenous Rac1 of human platelet …", "assay": "Rac1 G-LISA, PAK-GBD-GST on glutathione plate, loaded platelet extracts, absorbance 490 nm", "experimental": "For RhoA and Rac1 reactions goat anti-mouse secondary at 2 μg/ml is used, for RhoA,B,C reactions donkey anti-chicken secondary at 0.5 μg/ml is used, for Cdc42 reactions goat anti-sheep secondary antibody is used at 0.5 μg/ml. After three washes each of 200 μl PBST the activated Rho proteins are detected using absorbance or luminescence detection as described below.\nas §2"}, "[7]": {"molecular_target": "T1, constitutively active recombinant Rac1, …", "assay": "competition in Rac1: POSH G-LISA, 5 ng Rac1 (61L), POSH-GBD maleimide plate, PAK-GBD-GST at 0 to 10 µM"}, "[8]": {"molecular_target": "B4", "assay": "G-LISA on maleimide plates (FIG. 2)", "experimental": "as §1\n(§3) Referring to FIG. 2C, lysis buffer only (Blank), 5 ng of Cdc42 (61L) or Rac1 (61L) were subjected to a Cdc42 G-LISA assay as detailed in materials and methods (Example 2), and Cdc42 signal was detected by absorbance at 490 nm as described in materials and methods (Example 2)."}, "[9]": {"molecular_target": "B3", "assay": "Cdc42 G-LISA, WASP-GBD on maleimide plate, detection with anti-Cdc42 ACD02, absorbance 490 nm", "experimental": "as §1, §3"}, "[10]": {"molecular_target": "T3, constitutively active recombinant RhoA, glutamine 63 to leucine, histidine tagged (Homo sapiens (Human), UniProt P61586 1-193, limits assumed)", "T3 construct": "Bought protein; unable to hydrolyse GTP; also called RhoA (63L); R63; not shown: histidine tag", "T3 sequence (P61586 whole entry Q63L)": "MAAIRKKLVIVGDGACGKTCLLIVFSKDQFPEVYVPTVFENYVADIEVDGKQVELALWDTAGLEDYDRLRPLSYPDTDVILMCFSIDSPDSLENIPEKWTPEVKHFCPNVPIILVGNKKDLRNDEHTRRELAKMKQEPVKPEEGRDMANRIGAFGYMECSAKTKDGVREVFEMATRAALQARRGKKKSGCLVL", "assay": "G-LISA with rhotekin-Cys effector-GBD on plate, data not shown"}, "[11]": {"molecular_target": "T1, constitutively active recombinant Rac1, …", "assay": "competition in Rac1: POSH G-LISA, 5 ng Rac1 (61L), POSH-GBD maleimide plate, reference PAK-GBD-GST"}, "[12]": {"molecular_target": "T1, constitutively active recombinant Rac1, …", "assay": "competition in Rac1: POSH G-LISA, 5 ng Rac1 (61L), POSH-GBD maleimide plate, ROCK-GST as negative control inhibitor"}, "[13]": {"molecular_target": "active RhoA, sample not stated (Homo sapiens (Human), UniProt P61586 1-190, limits assumed)", "sequence (P61586 1-190 limits assumed)": "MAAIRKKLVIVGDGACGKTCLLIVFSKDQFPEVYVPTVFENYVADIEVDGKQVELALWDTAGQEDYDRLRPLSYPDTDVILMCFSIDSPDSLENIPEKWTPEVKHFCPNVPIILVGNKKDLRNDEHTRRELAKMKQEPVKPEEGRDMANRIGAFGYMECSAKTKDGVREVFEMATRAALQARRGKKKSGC", "assay": "G-LISA with and without TCA Antigen Presenting Buffer"}, "[14]": {"molecular_target": "T3, constitutively active recombinant RhoA, …", "assay": "RhoA G-LISA, ROCK1-GBD on maleimide plate, detection with anti-RhoA clone 384, luminometry", "experimental": "as §1, with “The” for “Active Rho protein (typically 7-15 μg total cell lysate or 1-5 ng of constitutively active recombinant protein) were either added directly to the effector bound G-LISA plate (Rac1 and Cdc42 G-LISAs) or diluted with an equal volume of Binding Buffer (20% PEG 8000, Sigma, St. Louis, Mo.) prior to adding to effector bound plates (RhoA G-LISA). The”"}, "[15]": {"molecular_target": "T4, endogenous RhoA of human platelet extract loaded with GTPγS (human, UniProt P61586 1-190)", "T4 construct": "also called active RhoA (GTPγS); GTPγS RhoA", "T4 sequence (P61586 1-190 limits assumed)": "as above", "assay": "RhoA G-LISA on ROCK-GBD maleimide plate, 15 µg GDP or GTPγS loaded platelet extract, Binding Buffer, luminometry", "experimental": "as §1"}, "[16]": {"molecular_target": "T4, endogenous RhoA of human platelet …", "assay": "RhoA G-LISA on ROCK plate, loaded platelet extracts, treatment with 10% TCA for 2 minutes, detection with clone 384, luminescence", "procedure": "Platelet cell lysates loaded with GTPγS or GDP nucleotides (10 μg total cell lysate per assay) were diluted with an equal volume of Binding Buffer (20% PEG 8000, Sigma, St. Louis, Mo.) prior to adding to ROCK effector bound plates. The reactions were incubated for 30 minutes at 4° C. on a microtiter titer plate shaker after which wells were washed once with 200 μl of PBST (PBS pH 7.2, 0.05% Tween-20) and immediately treated with one of the following chemical/physical treatments: microwaving for 3 minutes in the presence of 200 μl PBS; microwaving for 3 minutes dry; microwaving for 3 minutes in the presence of 200 μl of 8M urea; 200 μl methanol for 2 minutes; 200 pl ethanol for 2 minutes; 200 μl of 0.5% SDS for 2 minutes, 200 μl of 10% trichloroacetic acid (TCA) for 2 minutes at room temperature. […] After three washes each of 200 μl PBST, the activated Rho proteins were detected using luminescence detection. Luminescence was measured in a SpectroFluor Plus (Techan Inc.) after addition of 50 μl of lumigen reagent (Lumigen Inc., Catalog # PSA-100).\nAfter extract incubation, the plate was treated with MW+PBS, MW/Dry, MW/8 M urea, methanol, ethanol, 0.5% SDS, 10% TCA or no treatment followed by antibody incubation and luminescence detection. […]"}},
  "data": [
    {"binder": "B1", "values": [
      {"measurement": "loss of signal in the absence of TCA", "setting": "[1]", "result": "> 80", "unit": "%"},
      {"measurement": "signal fold above background", "setting": "[2]", "result": 9, "unit": "fold"},
      {"measurement": "signal fold above background", "setting": "[3]", "result": 7, "unit": "fold"},
      {"measurement": "fold signal of active (GTPγS) Rac1 over inactive (GDP) Rac1", "setting": "[4]", "result": 30, "unit": "fold"}
    ]},
    {"binder": "B2", "values": [
      {"measurement": "loss of signal in the absence of TCA", "setting": "[1]", "result": "> 80", "unit": "%"},
      {"measurement": "signal fold above background (buffer only)", "setting": "[5]", "result": 8, "unit": "fold"},
      {"measurement": "fold signal of GTPγS (active) over GDP (inactive) loaded platelet extract", "setting": "[6]", "result": 8, "unit": "fold"},
      {"measurement": "IC50", "setting": "[7]", "result": "~0.1", "unit": "µM"}
    ]},
    {"binder": "B3", "values": [
      {"measurement": "binding result", "setting": "[8]", "result": "binds"}
    ]},
    {"binder": "B4", "values": [
      {"measurement": "signal fold above background", "setting": "[9]", "result": 5, "unit": "fold"}
    ]},
    {"binder": "B5", "values": [
      {"measurement": "signal fold above background", "setting": "[10]", "result": 6, "unit": "fold"}
    ]},
    {"binder": "B6", "values": [
      {"measurement": "fold IC50 against PAK", "setting": "[11]", "result": "~80", "unit": "fold"},
      {"measurement": "IC50", "setting": "[12]", "result": 8, "unit": "µM"}
    ]},
    {"binder": "B7", "values": [
      {"measurement": "loss of signal in the absence of TCA", "setting": "[13]", "result": "> 80", "unit": "%"},
      {"measurement": "signal fold above background (buffer only)", "setting": "[14]", "result": 6, "unit": "fold"},
      {"measurement": "fold signal of active (GTPγS) RhoA over inactive (GDP) RhoA", "setting": "[15]", "result": 7, "unit": "fold"},
      {"measurement": "fold signal of GTPγS RhoA over GDP RhoA", "setting": "[16]", "result": "~8", "unit": "fold"}
    ]}
  ]
}
